{"source": "paper PMC4250834", "about": "(Cell reports, 2014)", "target": "T1, recombinant Clp1 (alone) (S. cerevisiae, UniProt Q08685 1-445)", "T1 sequence (looked up)": "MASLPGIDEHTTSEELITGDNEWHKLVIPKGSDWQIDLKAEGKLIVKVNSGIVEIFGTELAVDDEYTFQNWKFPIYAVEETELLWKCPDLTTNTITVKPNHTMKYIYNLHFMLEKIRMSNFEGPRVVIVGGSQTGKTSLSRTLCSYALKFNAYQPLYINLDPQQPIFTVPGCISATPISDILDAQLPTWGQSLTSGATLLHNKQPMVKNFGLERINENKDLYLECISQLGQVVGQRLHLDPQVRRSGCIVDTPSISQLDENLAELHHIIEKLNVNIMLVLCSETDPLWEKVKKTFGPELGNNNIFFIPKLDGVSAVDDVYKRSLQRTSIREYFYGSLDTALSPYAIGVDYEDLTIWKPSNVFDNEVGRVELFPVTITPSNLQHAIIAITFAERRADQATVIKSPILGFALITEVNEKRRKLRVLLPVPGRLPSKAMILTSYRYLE", "test": "pull-down", "note": "No end group written: not given here."}
{"binder": "TTPISPDEEELGQRTAYHSKRDASTPLRS (peptide, UniProt P08518 915-943, looked up, also: biotin, site not given here)", "note": "[biotinylated flap loop peptide (Rpb2 amino acids 915–943)]", "values": [{"measurement": "binding result", "value": "binds"}]}
